Measurements: article PMC7466809

System: GST-EZH2
Assay: Alpha assay (saturation)
Conditions: RNA-protein binding buffer: 50 mM Tris-HCl pH 7.9, 10 mM beta-ME, 10% glycerol, 5 mM MgCl2, 100 mM KCl, 0.1% NP-40; EMSA 1 h at RT, 1 ug His-EZH2, 0.035 pmol …

Work on LINC00301 (Alpha assay) yielded a K half of 228 nM.
